From patent US20150191520A1 (MEDIZINISCHE UNIVERSIT T WIEN, published 2015)
Substitutions are numbered along the chain they refer to. One block for each binder: values may come before it.

Key:
[1] = target: T1, isolated human iC3b (ih-iC3b) (human, UniProt P01024 23-667; P01024 749-1303; P01024 1321-1663, limits assumed, biotin on amino groups (Biotin-X-NHS) in flow cytometry; unlabelled in ELISA); test: flow cytometry, CSP on transduced Bw cells (FIG. 2a)
T1 construct: Multi-chain fragment
Procedure: (§1) FIG. 2. Interaction of ILT4 and ILT5v2 with C4d, C4b, C3d, C3b and iC3b. a Flow cytometric analysis of Bw cells transduced to express ILT2, ILT4 and ILT5-antigenic variants 1 and 2 (ILT5v1 and ILT5v2). Expression of ILT-receptors was verified with specific monoclonal antibodies (left panels, grey histograms; open histograms represent reactivity of ILT MAbs with mock treated Bw cells). Interaction of Bw cells expressing ILT-molecules and mock-treated Bw cells with the indicated CSPs (20 μg/mL each) and with MHC-class I tetramers (further panels, grey histograms). b Interaction of plate-bound CSPs with recombinant human ILT4-Fc fusion protein (rh-ILT4-Fc) or control Fc-fusion protein (rh-ILT3-Fc) was analyzed in an ELISA. c Bw cells transduced to express PIR-B, the murine ortholog of ILT4, were probed with a PIR-B-specific monoclonal antibody or with human CSPs and human MHC-class I tetramers.
(§2) Flow cytometric analyses were performed via a FACSCalibur flow cytometrer (BD Biosciences, Franklin Lakes, N.J.) using 60,000 cells per sample resuspended in FACS-buffer. In experiments employing monocytes or moDCs, human IgG (Beriglobin P; CSL Behring, Vienna, Austria) was used at 20 mg/mL to block Fcγ receptors. […]

[2] = target: T2, isolated human C3b (ih-C3b) (human, UniProt P01024 749-1663; P01024 23-667, limits assumed, biotin on amino groups (Biotin-X-NHS) in flow cytometry; unlabelled in ELISA); test: as above
T2 construct: Multi-chain fragment
Procedure: as §1, §2

[3] = target: T3, immunoglobulin-like transcript 4 (ILT4) (human, UniProt Q8N423 22-597); test: flow cytometry: rh-C4d (C4Ad per the FIG. 3a legend) titrated on Bw-ILT4 cells, detected with C4d-mMAb, Langmuir 1:1 isotherm; stated to be a minimum estimate (non-equilibrium assay)
T3 construct: Expressed on Bw5147 cells from a 2 kb retroviral insert; In the functional assays it is the native receptor on human monocytes; also called CD85d; LILRB2
T3 sequence (Q8N423 other isoform, or with tags, fused parts or gaps limits assumed): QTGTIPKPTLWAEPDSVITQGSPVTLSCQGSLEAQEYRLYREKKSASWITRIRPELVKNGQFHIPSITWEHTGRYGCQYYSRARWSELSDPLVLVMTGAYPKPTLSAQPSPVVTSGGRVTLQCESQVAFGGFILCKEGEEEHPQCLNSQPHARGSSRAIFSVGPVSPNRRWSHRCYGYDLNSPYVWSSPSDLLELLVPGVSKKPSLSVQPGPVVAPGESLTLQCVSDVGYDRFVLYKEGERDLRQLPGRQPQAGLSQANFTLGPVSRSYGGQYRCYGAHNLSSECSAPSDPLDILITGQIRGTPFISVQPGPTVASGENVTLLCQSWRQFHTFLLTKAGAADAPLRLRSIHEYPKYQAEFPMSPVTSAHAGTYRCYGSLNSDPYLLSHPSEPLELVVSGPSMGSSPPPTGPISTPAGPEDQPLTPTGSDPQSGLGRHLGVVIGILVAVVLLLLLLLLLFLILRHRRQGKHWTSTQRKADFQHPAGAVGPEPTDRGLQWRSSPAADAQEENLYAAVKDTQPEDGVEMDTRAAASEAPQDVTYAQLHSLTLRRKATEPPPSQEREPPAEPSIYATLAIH
Procedure: FIG. 3. Classical receptor-ligand interaction between C4d and ILT4. a Bw-ILT4 cells or control Bw cells (Bw-mock) were incubated with different concentrations of C4Ad and cell-bound C4Ad was measured by flow cytometry using C4d-mMAb for detection. Data obtained for C4Ad are representative for those using C4Bd, data not shown. Mean and standard deviation of triplicate measurements are shown. b Dissociation constant (Kd) of the C4d-ILT4 interaction assessed via Langmuir binding isotherm equation for single class 1:1 binding equilibrium based on data shown in FIG. 3a.
(§3) Flow cytometric analyses were performed via a FACSCalibur flow cytometrer (BD Biosciences, Franklin Lakes, N.J.) using 60,000 cells per sample resuspended in FACS-buffer. In experiments employing monocytes or moDCs, human IgG (Beriglobin P; CSL Behring, Vienna, Austria) was used at 20 mg/mL to block Fcγ receptors. For fluorescence-activated cell sorting (FACS), Bw cells expressing a retroviral cDNA expression library generated from moDC¹⁶ were incubated with biotinylated rh-C4Ad or rh-C4Bd (20m/mL each) in FACS-buffer for 30 minutes on ice followed by two washing steps and subsequent detection of bound biotinylated C4d molecules through incubation with SA-PE. FACS was performed using a FACSDiva (BD Biosciences).

[4] = target: T3, immunoglobulin-like transcript 4 (ILT4); test: flow cytometry, biotinylated C4d (20 µg/mL) on Bw cells expressing ILT4
From the text: FIG. 1. Identification of ILT4 as cellular receptor for C4d. a Flow cytometric analyses showing the interaction of biotinylated recombinant human C4d (20m/mL) of both isoforms, rh-C4Ad and rh-C4Bd, with monocytes and monocyte-derived dendritic cells (moDC; grey histograms). Open histograms represent the reactivity of the secondary reagent with these cells. SA-PE: streptavidin-R-PE. b C4d-reactive cells were enriched from a Bw cell pool expressing a cDNA library derived from human moDC by multiple rounds of FACS. Data obtained for rh-C4Bd are representative for those obtained using rh-C4Ad (data not shown). Sorting gates are shown. c Single cell clones derived from the C4d reactive Bw cell pool were probed with rh-C4Ad- and rh-C4Bd. MFI: mean fluorescence intensity. d PCR-amplification of the retroviral inserts of the C4d-b(C4Bd) binding clones 1.5 and 3.7. e Bw cells expressing a 2 kb retroviral insert encoding immunoglobulin-like transcript 4 (ILT4) were probed with biotinylated rh-C4Ad, rh-C4Bd and C4d isolated from human plasma (ih-C4d) each at 20m/mL or ILT4-specific mMAb (grey histograms). Open histograms represent reactivity of C4d molecules and ILT4 mMAb with control Bw-cells. f Monocytes and moDC were analyzed for ILT4 expression (grey histograms, ILT4-mMAb; open histograms, isotype control). […]

[5] = target: T1, isolated human iC3b (ih-iC3b); test: flow cytometry, CSP on transduced Bw cells (FIG. 5a)
Procedure: (§4) FIG. 5. Flow cytometric analysis of the interaction of C4d, C3d, C4b, C3b and iC3b and human MHC class I tetramers with Bw cells transduced to express a ILT1 transcript variants 1 and 2 (ILT1v1 and ILT1v2), ILT3 and ILT7, b previously established complement receptors CD21, CD46 and CRIg, and c PIR-A transcript variant 1 (PIR-Avl), murine ortholog of ILT1. a-c left panels: Expression of transduced receptors was assessed using specific antibodies (grey histograms); open histograms represent reactivity of these antibodies with control Bw cells. d Plate-bound CSP were probed with a recombinant protein representing the human CD35 extracellular domain (rh-sCD35) via ELISA. BSA was used as a plate-bound ligand control; white control bars represent no rh-sCD35 added to the assay.
as §3, with “In experiments employing monocytes or moDCs, human IgG (Beriglobin P; CSL Behring, Vienna, Austria) was used at 20 mg/mL to block Fcγ receptors.” left out, “FACS was performed using a FACSDiva (BD Biosciences).” left out

[6] = target: T2, isolated human C3b (ih-C3b); test: as above
Procedure: as §4
as §3, with “In experiments employing monocytes or moDCs, human IgG (Beriglobin P; CSL Behring, Vienna, Austria) was used at 20 mg/mL to block Fcγ receptors.” left out, “FACS was performed using a FACSDiva (BD Biosciences).” left out

binding result [1]: no binding (tested: 20 µg/mL) | binding result [2]: no binding (tested: 20 µg/mL)
B1: ILT2 (receptor, human, UniProt Q8NHL6 24-650, looked up)
chain: GHLPKPTLWAEPGSVITQGSPVTLRCQGGQETQEYRLYREKKTALWITRIPQELVKKGQFPIPSITWEHAGRYRCYYGSDTAGRSESSDPLELVVTGAYIKPTLSAQPSPVVNSGGNVILQCDSQVAFDGFSLCKEGEDEHPQCLNSQPHARGSSRAIFSVGPVSPSRRWWYRCYAYDSNSPYEWSLPSDLLELLVLGVSKKPSLSVQPGPIVAPEETLTLQCGSDAGYNRFVLYKDGERDFLQLAGAQPQAGLSQANFTLGPVSRSYGGQYRCYGAHNLSSEWSAPSDPLDILIAGQFYDRVSLSVQPGPTVASGENVTLLCQSQGWMQTFLLTKEGAADDPWRLRSTYQSQKYQAEFPMGPVTSAHAGTYRCYGSQSSKPYLLTHPSDPLELVVSGPSGGPSSPTTGPTSTSGPEDQPLTPTGSDPQSGLGRHLGVVIGILVAVILLLLLLLLLFLILRHRRQGKHWTSTQRKADFQHPAGAVGPEPTDRGLQWRSSPAADAQEENLYAAVKHTQPEDGVEMDTRSPHDEDPQAVTYAEVKHSRPRREMASPPSPLSGEFLDTKDRQAEEDRQMDTEAAASEAPQDVTYAQLHSLTLRREATEPPPSQEGPSPAVPSIYATLAIH
notes: whole, on cells

Kd [3]: 0.63 µM
B2: recombinant human C4d, isoform C4d-A (rh-C4Ad) (ligand)
chain: TLEIPGNSDPNMIPDGDFNSYVRVTASDPLDTLGSEGALSPGGVASLLRLPRGCGEQTMIYLAPTLAASRYLDKTEQWSTLPPETKDHAVDLIQKGYMRIQQFRKADGSYAAWLSRDSSTWLTAFVLKVLSLAQEQVGGSPEKLQETSNWLLSQQQADGSFQDPCPVLDRSMQGGLVGNDETVALTAFVTIALHHGLAVFQDEGAEPLKQRVEASISKANSFLGEKASAGLLGAHAAAITAYALTLTKAPVDLLGVAHNNLMAMAQETGDNLYWGSVTGSQSNAVSPTPAPRNPSDPMPQAPALWIETTAYALLHLLLHEGKAEMADQASAWLTRQGSFQGGFRSTQDTVIALDALSAYWIASHTTEERGLNVTLSSTGR
modifications: biotin on amino groups (Biotin-X-NHS) or, when indicated, on the thioester cysteine C1010 (prepro numbering) via Iodoacetyl-LC-biotin; unlabelled in FIG. 3a and when used as competitor
notes: also called complement split product C4Ad; rh-C4d

binding result [4]: binds
B3: recombinant human C4d, isoform C4d-B (rh-C4Bd) (ligand)
chain: B2 chain with D117G, P164L, C165S, L168I, D169H, N220S, V251A, L254R, S330A
modifications: biotin on amino groups (Biotin-X-NHS) or, when indicated, on the thioester cysteine C1010 (prepro numbering) via Iodoacetyl-LC-biotin; unlabelled when used as competitor
notes: also called complement split product C4Bd; rh-C4d

binding result [5]: no binding | binding result [6]: no binding
B4: ILT7 (receptor, human, UniProt P59901 24-499, looked up)
chain: ENLLKPILWAEPGPVITWHNPVTIWCQGTLEAQGYRLDKEGNSMSRHILKTLESENKVKLSIPSMMWEHAGRYHCYYQSPAGWSEPSDPLELVVTAYSRPTLSALPSPVVTSGVNVTLRCASRLGLGRFTLIEEGDHRLSWTLNSHQHNHGKFQALFPMGPLTFSNRGTFRCYGYENNTPYVWSEPSDPLQLLVSGVSRKPSLLTLQGPVVTPGENLTLQCGSDVGYIRYTLYKEGADGLPQRPGRQPQAGLSQANFTLSPVSRSYGGQYRCYGAHNVSSEWSAPSDPLDILIAGQISDRPSLSVQPGPTVTSGEKVTLLCQSWDPMFTFLLTKEGAAHPPLRLRSMYGAHKYQAEFPMSPVTSAHAGTYRCYGSRSSNPYLLSHPSEPLELVVSGATETLNPAQKKSDSKTAPHLQDYTVENLIRMGVAGLVLLFLGILLFEAQHSQRSPPRCSQEANSRKDNAPFRVVEPWEQI
notes: whole, on cells
